B1: CAMK2D (parent)
chain: LLKHPNIVRLHDSISEEGFHYLVF
B2: MLH1 (parent)
chain: YAHQMVRTDSREQKLDAFLQPLSK

Variants of: B1
Test: protein stability index of a GFP-peptide fusion (GPS, HEK-293T) (PSI 1-6); higher = more stable
Conditions: c terminus: a fixed tail appended
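Also: lentivirally expressed fusions sorted by FACS into six bins by GFP to DsRed ratio, PSI derived from sequencing read proportions per bin multiplied by bin number.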

Protein stability index: each site, then its substitutions
D12: A 2.96, Q 1.31, G 3.51, N 1.61, R 3.07, T 2.59, I 2.54, K 3.1, S 3, P 2.38, H 3.02, F 4.12, C 3.3, L 2.47
K3: T 1.52, E 2.16, M 1.77, P 2.1, V 1.78, Y 3, G 2.04, N 2.22, H 1.44, L 3.21, C 3.78, I 2.71, D 2.74, F 2.85, S 1.79, A 2.38, R 2.28, W 2.83
L2: S 1.56, V 2.86, Y 1.83, T 1.94, D 2.09, K 3.35, H 1.44, G 2.37, M 1.77, C 2.36, Q 1.76, A 2.92, E 2.04, P 1.56, W 3.25, N 3.63, I 3.93
N6: A 2.22, F 2.94, Y 3.11, D 1.76, E 3.7, P 2.15, C 2.13, H 2.18, I 1.94, W 2.75, R 2.54, Q 3.46, T 3.24, L 3.32, S 1.39, V 3.01, K 2.36
H11: I 2.7, L 1.48, N 2.29, T 2.52, P 2.42, A 2.57, K 3.01, W 2.62, Y 2.88, E 2.68, C 2.84, F 1.96, Q 2.07, D 2.39, S 1.8, V 1.9, R 2.79
V8: A 2.64, Q 1.94, R 1.81, W 3.27, H 1.8, F 1.47, M 2.59, G 2.79, E 2.17, D 2.41, P 2.01, K 2.05, L 2.21, Y 2.91, I 1.87
L10: K 2.02, S 1.86, D 1.74, W 3.54, A 2.84, T 1.43, P 2.49, C 2.11, M 3.69, H 2.14, Q 1.7, G 1.36, R 1.17, Y 2.95, N 2.25, F 3.99, E 2.5, I 2.53, V 1.75
R9: F 1.26, T 1.68, A 2.1, G 1.79, W 2.69, D 3.18, Y 2.87, S 2.58, H 2.1, E 3.23, L 3.22, M 2.74, P 2.45, N 2.7, V 1.84, K 3.39, Q 2.17, C 3.88
L1: Y 1.96, D 4.59, N 2.14, T 1.62, F 2.89, E 2.23, V 2.25, P 1.76, M 2.61, Q 1.77, I 3.14, H 1.51, K 3.1, S 2.13, C 1.97
P5: V 2.56, K 2.42, M 1.72, L 3.34, W 2.57, G 1.76, A 2.2, I 3.47, Q 2.6, T 2.59, S 2.59, F 2.26, H 2.4, Y 1.57, D 1.97, N 2.58, C 2.29
I7: H 3.65, W 1.07, T 2.19, N 3.17, A 1.95, F 2.39, M 3.55, E 2.67, L 2.98, S 1.89, Q 2.14, P 1.76, R 2.02, D 1.99, K 1.56, C 3.93
H4: F 1.88, C 1.66, G 2.23, S 1.94, P 1.67, R 2.6, M 3.37, T 1.84, A 3.37, E 2.6, W 1.44, Q 1.06, K 3.21, Y 2.32, D 1.77, L 2.79, I 2.28, V 1.58

Variants of: B2
Test: as above
Conditions: c terminus: a fixed tail appended

Protein stability index, by site and new letter:
D16: W 3.5, A 2.69, C 1.99, K 2.63, S 2.1, N 1.91, V 1.66, L 1.62, G 2.08, I 2.16, Q 2.46, Y 1.57
P21: S 3, H 2.57, V 2.48, Y 1.71, T 2.21, Q 2.7, K 2.42, I 2.57, L 2.16, W 2.4, M 1.9, D 2.84, C 2.2, N 2.4
K14: Y 1.83, F 2, N 2.48, V 2.57, I 2.43, W 1.86, L 1.54
K24: W 2.16, C 2.29, L 1.85, E 3.28, G 2.48, I 1.95, D 3.26, F 1.78
L19: K 3.16, T 3.02, R 3.33, H 3.12, D 3.02, Q 3.02, E 3.38, I 2.21, N 2.85, W 2.42, P 2.55, V 2.84, G 2.12
F18: G 2.79, D 3.79, E 3.12, C 3.22, Q 3.55, V 3.15, T 3.36, S 3.52, R 3.17, N 3.15, H 3.29, L 2.4, W 1.85, Y 2.27
A17: I 2.69, L 1.85, C 2.15, R 2.66, E 2.98, P 2.66, F 1.88, N 3.19, W 2.19, V 3.02, D 3, S 2.57, M 2.45, K 3.29, Q 2.06
Q20: C 1.98, F 1.91, V 2.09, I 2.07, A 2.49, Y 1.88, M 2.45, L 2.53, D 3.39, R 2.5, E 2.51, W 2.99, H 2.78
S23: Q 2.7, E 2.86, D 3.41, R 2.45, G 3.24, H 2.01, A 1.99, T 2.43, W 2.27, F 2.4, N 2.42, P 2.18
L15: E 3.83, I 2.17, F 2.2, H 2.57, N 3.28, G 3.28, D 3.25, Q 3.77, W 2.37
L22: A 2.59, D 3.38, H 2.45, S 3.14, R 3.02, T 3.2, C 2.59, K 2.98, N 3.11, I 3.13, E 3.02, G 3.03, P 2.06, Y 2.03, M 2.43, F 2.07
